Columns and labels:
c-Src SH2 = assay: SH2 binding enrichment of the phosphorylated peptide, bacterial display (enrichment ratio); higher = better substrate or ligand; peptides without Tyr show the background
Grb2 SH2 = Grb2 SH2 (UniProt P62993); assay: as above
SHP2-C SH2 = assay: as above
FGFR3 = FGFR3 (UniProt P22607); assay: phosphorylation enrichment, bacterial display (enrichment ratio); higher = better substrate or ligand; peptides without Tyr show the background
Fer (mouse) = assay: as above
EPHB1 = EPHB1 (UniProt P54762); assay: as above
Jak2 = Jak2 (UniProt O60674); assay: as above
Jak2, sequence (O60674 whole entry, looked up): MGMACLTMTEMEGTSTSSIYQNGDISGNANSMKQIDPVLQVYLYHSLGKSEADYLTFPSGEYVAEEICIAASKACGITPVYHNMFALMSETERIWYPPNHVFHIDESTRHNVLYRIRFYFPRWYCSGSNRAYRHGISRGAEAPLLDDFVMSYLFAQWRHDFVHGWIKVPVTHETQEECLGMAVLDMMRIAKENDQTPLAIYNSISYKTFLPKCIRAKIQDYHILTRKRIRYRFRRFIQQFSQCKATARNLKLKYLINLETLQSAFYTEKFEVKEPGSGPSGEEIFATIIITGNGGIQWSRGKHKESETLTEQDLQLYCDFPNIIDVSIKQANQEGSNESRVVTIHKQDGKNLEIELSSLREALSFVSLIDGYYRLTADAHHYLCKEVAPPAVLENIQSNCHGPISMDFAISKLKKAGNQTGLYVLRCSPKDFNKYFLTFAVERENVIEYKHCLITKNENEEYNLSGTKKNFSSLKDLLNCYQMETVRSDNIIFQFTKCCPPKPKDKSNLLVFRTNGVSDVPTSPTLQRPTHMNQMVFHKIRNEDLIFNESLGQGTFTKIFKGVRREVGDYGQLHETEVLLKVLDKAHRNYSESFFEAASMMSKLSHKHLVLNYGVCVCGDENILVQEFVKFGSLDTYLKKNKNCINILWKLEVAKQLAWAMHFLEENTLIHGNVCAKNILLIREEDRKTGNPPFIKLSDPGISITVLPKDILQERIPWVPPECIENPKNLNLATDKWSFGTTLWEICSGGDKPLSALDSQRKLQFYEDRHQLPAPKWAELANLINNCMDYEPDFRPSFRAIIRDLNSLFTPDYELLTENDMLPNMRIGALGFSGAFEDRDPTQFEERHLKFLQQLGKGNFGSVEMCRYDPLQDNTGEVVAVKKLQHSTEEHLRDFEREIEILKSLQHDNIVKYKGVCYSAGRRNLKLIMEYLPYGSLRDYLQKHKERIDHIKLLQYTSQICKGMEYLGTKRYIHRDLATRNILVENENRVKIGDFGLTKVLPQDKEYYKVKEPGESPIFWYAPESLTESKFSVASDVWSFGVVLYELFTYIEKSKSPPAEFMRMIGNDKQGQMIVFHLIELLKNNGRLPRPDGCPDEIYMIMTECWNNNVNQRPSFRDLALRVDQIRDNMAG

MERTK = MERTK (UniProt Q12866); assay: as above
MERTK, sequence (Q12866 whole entry, looked up): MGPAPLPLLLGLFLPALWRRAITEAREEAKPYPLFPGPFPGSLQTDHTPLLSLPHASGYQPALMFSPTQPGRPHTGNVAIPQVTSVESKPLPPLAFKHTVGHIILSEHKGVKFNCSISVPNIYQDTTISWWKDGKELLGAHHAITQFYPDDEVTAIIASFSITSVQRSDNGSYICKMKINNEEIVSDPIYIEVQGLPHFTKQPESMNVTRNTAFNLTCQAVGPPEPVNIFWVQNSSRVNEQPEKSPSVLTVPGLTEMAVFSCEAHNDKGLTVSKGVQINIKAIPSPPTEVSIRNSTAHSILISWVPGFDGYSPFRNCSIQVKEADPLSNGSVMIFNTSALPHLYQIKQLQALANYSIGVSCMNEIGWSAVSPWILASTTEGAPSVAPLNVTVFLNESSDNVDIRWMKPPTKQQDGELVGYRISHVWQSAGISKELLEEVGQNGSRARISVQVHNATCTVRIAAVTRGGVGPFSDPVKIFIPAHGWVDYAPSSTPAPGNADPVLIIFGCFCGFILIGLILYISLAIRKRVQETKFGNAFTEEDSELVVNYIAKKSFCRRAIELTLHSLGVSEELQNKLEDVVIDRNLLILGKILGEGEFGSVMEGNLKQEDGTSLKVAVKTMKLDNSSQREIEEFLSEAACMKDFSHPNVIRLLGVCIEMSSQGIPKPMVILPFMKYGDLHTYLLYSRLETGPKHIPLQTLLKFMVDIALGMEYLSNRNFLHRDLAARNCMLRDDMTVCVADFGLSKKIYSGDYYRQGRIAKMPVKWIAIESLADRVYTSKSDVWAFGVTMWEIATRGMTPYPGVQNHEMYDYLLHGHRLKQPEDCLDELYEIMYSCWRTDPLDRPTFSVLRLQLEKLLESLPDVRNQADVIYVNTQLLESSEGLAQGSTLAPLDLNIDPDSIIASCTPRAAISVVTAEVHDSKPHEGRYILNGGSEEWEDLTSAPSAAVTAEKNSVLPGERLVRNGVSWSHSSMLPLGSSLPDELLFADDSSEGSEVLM

AncSZ = assay: as above
Hck = Hck (UniProt P08631); assay: as above
Hck, sequence (P08631 whole entry, looked up): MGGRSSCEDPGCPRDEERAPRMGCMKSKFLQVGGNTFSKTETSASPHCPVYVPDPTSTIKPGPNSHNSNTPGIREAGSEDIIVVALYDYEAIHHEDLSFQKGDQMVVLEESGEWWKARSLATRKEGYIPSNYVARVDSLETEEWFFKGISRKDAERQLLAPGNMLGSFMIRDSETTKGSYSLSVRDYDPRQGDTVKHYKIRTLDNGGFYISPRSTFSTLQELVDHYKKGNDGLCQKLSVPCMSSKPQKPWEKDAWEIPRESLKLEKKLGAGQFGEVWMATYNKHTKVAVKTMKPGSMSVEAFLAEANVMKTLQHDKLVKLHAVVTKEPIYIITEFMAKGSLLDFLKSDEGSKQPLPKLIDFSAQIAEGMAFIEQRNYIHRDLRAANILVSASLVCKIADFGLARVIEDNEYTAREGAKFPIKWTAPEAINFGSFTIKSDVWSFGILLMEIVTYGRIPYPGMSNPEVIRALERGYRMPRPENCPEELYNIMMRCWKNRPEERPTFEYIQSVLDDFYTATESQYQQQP

Fyn = Fyn (UniProt P06241); assay: as above
Fyn, sequence (P06241 whole entry, looked up): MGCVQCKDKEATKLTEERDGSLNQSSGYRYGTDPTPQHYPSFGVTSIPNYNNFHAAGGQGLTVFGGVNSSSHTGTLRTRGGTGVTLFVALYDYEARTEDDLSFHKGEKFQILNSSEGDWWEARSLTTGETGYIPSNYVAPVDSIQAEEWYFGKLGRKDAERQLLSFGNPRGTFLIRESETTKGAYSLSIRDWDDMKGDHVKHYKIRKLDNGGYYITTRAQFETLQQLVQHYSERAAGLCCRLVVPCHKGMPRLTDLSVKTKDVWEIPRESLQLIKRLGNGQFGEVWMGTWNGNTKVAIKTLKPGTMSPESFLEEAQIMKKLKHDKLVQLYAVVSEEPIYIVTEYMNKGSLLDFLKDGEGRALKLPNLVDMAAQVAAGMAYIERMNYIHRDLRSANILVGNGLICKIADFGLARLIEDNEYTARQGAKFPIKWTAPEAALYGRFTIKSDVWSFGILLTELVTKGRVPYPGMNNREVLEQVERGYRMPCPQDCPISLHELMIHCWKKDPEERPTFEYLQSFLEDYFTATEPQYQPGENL

EPHB2 = EPHB2 (UniProt P29323); assay: as above
FGFR1 = FGFR1 (UniProt P11362); assay: as above
c-Abl (mouse) = assay: as above
c-Src = assay: as above
Fes = Fes (UniProt P07332); assay: as above
Fes, sequence (P07332 whole entry, looked up, the tested form may be a part): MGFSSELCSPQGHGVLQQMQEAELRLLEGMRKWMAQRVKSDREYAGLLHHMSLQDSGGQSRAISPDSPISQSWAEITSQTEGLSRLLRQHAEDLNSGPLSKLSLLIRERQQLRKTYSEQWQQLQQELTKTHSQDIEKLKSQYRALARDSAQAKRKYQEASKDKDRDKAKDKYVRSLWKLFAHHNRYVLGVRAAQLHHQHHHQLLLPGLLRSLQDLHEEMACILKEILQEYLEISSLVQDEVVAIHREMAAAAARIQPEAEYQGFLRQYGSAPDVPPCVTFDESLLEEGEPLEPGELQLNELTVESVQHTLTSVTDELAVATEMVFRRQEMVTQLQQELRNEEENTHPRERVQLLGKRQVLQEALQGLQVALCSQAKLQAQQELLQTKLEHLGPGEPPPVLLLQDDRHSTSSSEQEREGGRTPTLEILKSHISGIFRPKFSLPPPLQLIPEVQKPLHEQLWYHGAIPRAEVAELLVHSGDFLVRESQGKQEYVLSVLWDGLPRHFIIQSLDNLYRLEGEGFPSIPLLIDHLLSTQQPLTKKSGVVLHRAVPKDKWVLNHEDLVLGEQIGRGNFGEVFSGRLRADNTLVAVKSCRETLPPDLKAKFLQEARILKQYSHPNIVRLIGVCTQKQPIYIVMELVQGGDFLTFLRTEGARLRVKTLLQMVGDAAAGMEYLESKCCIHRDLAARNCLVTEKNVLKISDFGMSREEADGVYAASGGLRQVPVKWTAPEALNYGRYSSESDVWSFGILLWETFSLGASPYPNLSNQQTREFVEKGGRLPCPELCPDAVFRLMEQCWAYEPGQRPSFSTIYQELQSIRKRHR
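For SH2 binding enrichment of the phosphorylated peptide, bacterial display in this document: peptide library displayed on the E. coli surface as eCPX fusions, selected cells deep-sequenced, score is each peptide's frequency after selection divided by its frequency in the input.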
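For phosphorylation enrichment, bacterial display in this document: 11-residue human phosphosite peptides and single-mutation variants displayed on the E. coli surface, counted by deep sequencing, each peptide's frequency after selection divided by its frequency in the unselected input library; frequency after pTyr selection over input frequency; kinase dosed for 20-30% of maximal phosphorylation in three min.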

FGFR3, sequence (P22607 whole entry, looked up): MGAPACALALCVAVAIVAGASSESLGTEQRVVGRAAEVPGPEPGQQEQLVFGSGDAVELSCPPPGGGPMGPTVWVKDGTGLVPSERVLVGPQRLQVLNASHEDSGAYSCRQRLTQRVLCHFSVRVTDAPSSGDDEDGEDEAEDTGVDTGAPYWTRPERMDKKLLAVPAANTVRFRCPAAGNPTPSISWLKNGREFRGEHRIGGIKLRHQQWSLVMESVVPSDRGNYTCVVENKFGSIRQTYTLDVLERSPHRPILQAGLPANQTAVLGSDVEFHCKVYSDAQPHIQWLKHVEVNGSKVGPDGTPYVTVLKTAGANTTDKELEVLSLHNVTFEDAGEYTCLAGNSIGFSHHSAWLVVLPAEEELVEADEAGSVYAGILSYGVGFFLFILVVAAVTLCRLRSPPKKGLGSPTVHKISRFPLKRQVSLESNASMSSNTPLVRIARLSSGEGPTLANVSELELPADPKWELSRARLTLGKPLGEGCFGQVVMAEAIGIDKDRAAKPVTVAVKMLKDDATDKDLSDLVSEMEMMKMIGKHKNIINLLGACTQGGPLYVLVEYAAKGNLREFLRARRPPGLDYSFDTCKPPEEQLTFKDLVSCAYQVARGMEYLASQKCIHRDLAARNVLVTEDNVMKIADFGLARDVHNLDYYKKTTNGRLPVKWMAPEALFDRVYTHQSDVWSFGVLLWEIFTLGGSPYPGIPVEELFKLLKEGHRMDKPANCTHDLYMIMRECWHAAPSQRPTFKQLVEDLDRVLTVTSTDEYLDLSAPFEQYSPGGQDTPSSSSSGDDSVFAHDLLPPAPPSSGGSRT

Row | SH2 binding enrichment (c-Src SH2) | SH2 binding enrichment (Grb2 SH2) | SH2 binding enrichment (SHP2-C SH2) | Sequence | phosphorylation enrichment (FGFR3) | phosphorylation enrichment (Fer (mouse)) | phosphorylation enrichment (EPHB1) | phosphorylation enrichment (Jak2) | phosphorylation enrichment (MERTK) | phosphorylation enrichment (AncSZ) | phosphorylation enrichment (Hck) | phosphorylation enrichment (Fyn) | phosphorylation enrichment (EPHB2) | phosphorylation enrichment (FGFR1) | phosphorylation enrichment (c-Abl (mouse)) | phosphorylation enrichment (c-Src) | phosphorylation enrichment (Fes)
1 | 0.878 | 0.807 | 0.64 | PEVRRYVLPLN [RPE65_Y368] | 1.3 | 0.893 | 1.3 | 1.2 | 0.92 | 1.41 | 0.916 | 0.597 | 0.811 | 0.606 | 1.44 | 0.804 | 1.45
2 | 0.422 | 0.971 | 0.552 | RNDLDYMDSRR [GAA_Y407_W402R] | 0.645 | 0.341 | 0.426 | 0.798 | 0.528 | 0.809 | 0.509 | 0.455 | 0.408 | 0.512 | 0.779 | 0.555 | 0.81
3 | 0.719 | 0.927 | 0.881 | IVEYAYNDKAV [PUM3_Y259_I264V] | 0.673 | 0.455 | 0.669 | 1 | 0.5 | 0.989 | 0.42 | 0.418 | 0.418 | 0.52 | 1.01 | 0.492 | 1.1
4 | 0.667 | 0.966 | 1.41 | ADSLRYIFPKL [EIF2B3_Y92_YF] | 0.497 | 0.31 | 0.43 | 0.64 | 0.459 | 0.552 | 0.413 | 0.474 | 0.381 | 0.398 | 0.566 | 0.457 | 0.681
5 | 1.21 | 0.951 | 0.6 | KILGRYYETGS [PAX2_Y72] | 0.523 | 0.418 | 0.5 | 0.952 | 0.548 | 0.641 | 0.486 | 0.437 | 0.586 | 0.507 | 0.636 | 0.504 | 0.758
6 | 0.522 | 0.618 | 0.483 | CPEARYNRSPI [PTAR1_Y42] | 0.617 | 0.435 | 0.485 | 0.641 | 0.433 | 0.699 | 0.492 | 0.441 | 0.458 | 0.419 | 0.55 | 0.399 | 0.859
7 | 0.881 | 0.984 | 0.865 | KLVQLYDVCTK [BTK_Y461_G462D] | 0.742 | 2.56 | 12.1 | 0.79 | 7.27 | 0.994 | 4.92 | 1.37 | 11.7 | 0.58 | 1.25 | 1.56 | 1.03
8 | 0.444 | 0.879 | 0.538 | PESTLYRKFTT [NTRK1_Y701_I699T] | 0.644 | 0.448 | 0.433 | 0.812 | 0.399 | 1.01 | 0.608 | 0.347 | 0.275 | 0.646 | 1.12 | 0.467 | 0.83
9 | 0.685 | 0.699 | 0.511 | LVQAEYWHDRI [PPT1_Y185_P189R] | 2.08 | 0.706 | 0.684 | 1.25 | 0.522 | 1.16 | 0.605 | 0.396 | 0.896 | 3.27 | 0.868 | 0.603 | 1
10 | 0.462 | 0.75 | 0.574 | EEGNPSFSSAR [MCCC2_Y520_Y520S_YF] | 0.623 | 0.426 | 0.418 | 0.826 | 0.459 | 0.682 | 0.395 | 0.42 | 0.467 | 0.388 | 0.681 | 0.433 | 0.876
11 | 3.3 | 0.851 | 0.898 | QNTGNYYDLYG [PTPN11_Y62_D61N] | 20.6 | 3.81 | 30.6 | 2.99 | 13.2 | 2.38 | 8.01 | 9.62 | 28.7 | 22.8 | 1.28 | 5.18 | 1.65
12 | 0.449 | 0.808 | 0.626 | NSRYTCKLEVK [USH2A_Y3747_Y3747C] | 0.885 | 0.501 | 0.678 | 1.19 | 0.387 | 1.21 | 0.471 | 0.407 | 0.57 | 0.471 | 0.921 | 0.441 | 1.45
13 | 0.32 | 0.786 | 0.594 | ADKSAYLMGVN [MYH7_Y386_L390V] | 0.466 | 0.396 | 0.418 | 0.58 | 0.338 | 0.574 | 0.401 | 0.405 | 0.466 | 0.399 | 0.572 | 0.41 | 0.661
14 | 0.742 | 1.01 | 0.956 | KPPFSYNALIR [FOXG1_Y186_M191R] | 0.519 | 0.446 | 0.478 | 0.618 | 0.477 | 0.695 | 0.53 | 0.482 | 0.55 | 0.505 | 0.565 | 0.504 | 0.807
15 | 0.485 | 0.722 | 0.824 | GRERPYGGGGG [FUS_Y526_R521G] | 0.487 | 0.6 | 0.654 | 0.512 | 0.968 | 0.498 | 0.787 | 0.357 | 0.492 | 1.02 | 0.416 | 0.854 | 0.565
16 | 0.658 | 0.991 | 0.898 | DAGTDYVGISC [FREM2_Y2061_R2066C] | 0.959 | 0.558 | 0.578 | 0.732 | 0.4 | 1.31 | 0.478 | 0.522 | 0.619 | 1.05 | 0.688 | 0.546 | 0.961
17 | 0.599 | 0.924 | 0.775 | QRNEEYCLLDS [ITK_Y198_R193Q] | 1.37 | 0.862 | 1.11 | 1.85 | 0.861 | 1.7 | 0.707 | 0.735 | 0.995 | 1.74 | 1.67 | 0.963 | 2.35

Row | SH2 binding enrichment (c-Src SH2) | SH2 binding enrichment (Grb2 SH2) | SH2 binding enrichment (SHP2-C SH2) | Sequence | phosphorylation enrichment (FGFR3) | phosphorylation enrichment (Fer (mouse)) | phosphorylation enrichment (EPHB1) | phosphorylation enrichment (Jak2) | phosphorylation enrichment (MERTK) | phosphorylation enrichment (AncSZ) | phosphorylation enrichment (Hck) | phosphorylation enrichment (Fyn) | phosphorylation enrichment (EPHB2) | phosphorylation enrichment (FGFR1) | phosphorylation enrichment (c-Abl (mouse)) | phosphorylation enrichment (c-Src) | phosphorylation enrichment (Fes)
18 | 0.557 | 1.09 | 0.628 | LATINYPFEKG [NDUFS8_Y84_P79L] | 0.576 | 0.5 | 0.565 | 0.642 | 0.377 | 0.827 | 0.401 | 0.421 | 0.484 | 0.503 | 0.64 | 0.467 | 0.914
19 | 1.02 | 1.03 | 1.06 | FRPPFYHRDCM [HGD_Y334_N337D_YF] | 0.724 | 0.577 | 0.611 | 0.942 | 0.471 | 0.895 | 0.507 | 0.459 | 0.659 | 0.558 | 0.735 | 0.477 | 1.1
20 | 0.705 | 0.729 | 0.704 | DERQPYVHMNG [IGF1R_Y1346_A1347V] | 0.627 | 0.446 | 0.436 | 0.786 | 0.428 | 0.696 | 0.471 | 0.438 | 0.5 | 0.592 | 0.503 | 0.484 | 0.81
21 | 1.31 | 0.958 | 0.59 | QQLDKYQELLD [LMNA_Y359_E358K] | 0.783 | 0.452 | 0.889 | 1.33 | 0.446 | 1.26 | 0.441 | 0.485 | 0.806 | 0.715 | 0.789 | 0.453 | 0.995
22 | 1.11 | 0.871 | 1.25 | SYMVRYNQPRV [GRIN2D_Y736] | 0.523 | 0.419 | 0.46 | 0.651 | 0.45 | 0.721 | 0.385 | 0.38 | 0.51 | 0.561 | 0.694 | 0.432 | 0.734
23 | 0.511 | 0.895 | 0.751 | FGYPGYQSKHY [TIMP3_Y177] | 0.546 | 0.443 | 0.512 | 0.607 | 0.435 | 0.592 | 0.414 | 0.516 | 0.465 | 0.349 | 0.496 | 0.534 | 0.8
24 | 0.591 | 1.12 | 0.715 | TIMTNYNPNYC [ALK_Y1092_D1091N] | 0.549 | 0.46 | 0.619 | 0.639 | 0.407 | 0.758 | 0.548 | 0.565 | 0.5 | 0.545 | 0.558 | 0.45 | 0.901
25 | 0.355 | 0.67 | 0.609 | MLEVSYVDRNS [F10_Y384_P383S] | 0.519 | 0.439 | 0.48 | 0.876 | 0.37 | 0.651 | 0.437 | 0.375 | 0.528 | 0.441 | 0.554 | 0.466 | 0.758
26 | 0.525 | 0.792 | 0.528 | GGMTEYELVVV [KRAS_Y4_K5E] | 1.62 | 7.66 | 1.39 | 1 | 0.456 | 1.6 | 0.585 | 0.664 | 1.15 | 2.95 | 0.589 | 0.651 | 1.04
27 | 0.442 | 0.677 | 0.51 | RAYRHYLLKQK [SCN2A_Y1919_R1918H] | 0.607 | 0.332 | 0.334 | 0.47 | 0.571 | 0.52 | 0.414 | 0.632 | 0.602 | 0.31 | 0.376 | 0.583 | 0.597
28 | 0.563 | 0.718 | 0.6 | WAFNLYDINKD [KCNIP3_Y174] | 0.763 | 1.82 | 1.27 | 1.17 | 1.3 | 1.43 | 2.65 | 1.92 | 1.64 | 0.541 | 0.91 | 1.78 | 1.45
29 | 0.467 | 0.735 | 0.746 | RAIELYNDKEK [OTULIN_Y244] | 0.924 | 0.657 | 0.73 | 1.69 | 0.54 | 1.52 | 1.08 | 0.558 | 0.821 | 0.923 | 0.845 | 0.747 | 1.51
30 | 0.583 | 0.646 | 0.521 | MWGSDYVQLSR [MAP3K4_Y582] | 4.02 | 0.383 | 9.41 | 5.71 | 0.561 | 1.67 | 1.12 | 0.685 | 6.29 | 7.1 | 0.53 | 1.08 | 0.765
31 | 0.423 | 0.858 | 0.648 | QRKPSYNQLPS [BRCA2_Y71_A75P] | 0.598 | 0.536 | 0.449 | 0.72 | 0.567 | 0.886 | 0.691 | 0.599 | 0.522 | 0.557 | 1.08 | 0.682 | 0.767
32 | 0.423 | 0.778 | 0.636 | TEAGDYKLCFD [TMED1_Y103] | 1.02 | 0.619 | 0.773 | 1.27 | 0.496 | 1.38 | 0.564 | 0.598 | 0.65 | 0.653 | 0.888 | 0.54 | 1.35
33 | 12.7 | 0.774 | 0.564 | PRDSGYSYETI [MAP1B_Y1921_S1917R] | 0.898 | 0.777 | 0.448 | 0.781 | 0.55 | 0.917 | 0.405 | 0.354 | 0.745 | 0.679 | 0.542 | 0.467 | 1.29

From the supplement of paper PMC10065799, “High-throughput profiling of sequence recognition by tyrosine kinases and SH2 domains using bacterial peptide display” (eLife, 2023)
